# Source: patent US7138262
# T1: mannose receptor on mouse J774E macrophage cells (mouse) (UniProt Q61830)
# T1 sequence (looked up): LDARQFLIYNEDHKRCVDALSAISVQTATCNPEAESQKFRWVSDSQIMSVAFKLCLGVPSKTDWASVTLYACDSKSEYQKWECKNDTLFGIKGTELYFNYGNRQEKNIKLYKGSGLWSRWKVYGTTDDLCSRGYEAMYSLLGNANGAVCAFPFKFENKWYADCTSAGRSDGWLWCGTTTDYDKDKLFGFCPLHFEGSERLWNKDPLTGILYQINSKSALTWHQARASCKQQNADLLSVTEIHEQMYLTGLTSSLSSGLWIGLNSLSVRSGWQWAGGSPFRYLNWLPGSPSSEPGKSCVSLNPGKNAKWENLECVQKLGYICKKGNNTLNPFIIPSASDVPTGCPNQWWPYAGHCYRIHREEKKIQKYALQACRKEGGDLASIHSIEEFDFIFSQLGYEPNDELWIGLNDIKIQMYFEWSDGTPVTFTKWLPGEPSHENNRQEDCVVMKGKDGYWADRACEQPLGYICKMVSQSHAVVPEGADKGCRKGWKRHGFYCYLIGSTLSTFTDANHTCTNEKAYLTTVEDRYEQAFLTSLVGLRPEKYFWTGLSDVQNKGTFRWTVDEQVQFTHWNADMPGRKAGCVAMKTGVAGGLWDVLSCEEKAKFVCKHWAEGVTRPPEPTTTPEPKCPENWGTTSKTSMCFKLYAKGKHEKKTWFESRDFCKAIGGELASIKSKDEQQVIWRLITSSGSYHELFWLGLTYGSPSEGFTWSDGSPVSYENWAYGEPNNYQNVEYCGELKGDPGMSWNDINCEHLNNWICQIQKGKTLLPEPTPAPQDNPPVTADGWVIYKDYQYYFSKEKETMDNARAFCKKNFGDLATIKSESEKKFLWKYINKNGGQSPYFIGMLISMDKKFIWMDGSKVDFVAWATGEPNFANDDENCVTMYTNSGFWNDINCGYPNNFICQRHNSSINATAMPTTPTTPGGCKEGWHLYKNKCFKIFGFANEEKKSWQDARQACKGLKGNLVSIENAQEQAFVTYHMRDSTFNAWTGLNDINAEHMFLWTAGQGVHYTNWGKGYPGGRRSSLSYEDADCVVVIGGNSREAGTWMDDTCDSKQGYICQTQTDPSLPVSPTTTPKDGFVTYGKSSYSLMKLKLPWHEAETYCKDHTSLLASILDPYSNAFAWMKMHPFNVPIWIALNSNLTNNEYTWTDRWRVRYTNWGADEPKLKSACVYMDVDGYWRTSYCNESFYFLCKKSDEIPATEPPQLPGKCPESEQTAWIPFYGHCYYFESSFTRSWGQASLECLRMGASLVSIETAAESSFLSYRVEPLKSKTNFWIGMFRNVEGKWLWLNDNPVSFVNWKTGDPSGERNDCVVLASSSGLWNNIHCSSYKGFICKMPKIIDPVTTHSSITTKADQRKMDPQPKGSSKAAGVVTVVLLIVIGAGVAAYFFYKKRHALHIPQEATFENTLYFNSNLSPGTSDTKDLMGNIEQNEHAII
# Molecular target: T1, mannose receptor on mouse J774E macrophage cells (mouse)
# Assay: cell-based or functional assay
Inhibition (%) of uptake into J774E cells by mannan [%],"Internalization into J774E cells in the presence of 2 µg/mL mannan: glucocerebrosidase activity (Units/mg cell lysate), absolute (Units/mg cell lysate)","Internalization into J774E cells in the presence of 2 µg/mL mannan: glucocerebrosidase activity (Units/mg cell lysate), background corrected (Units/mg cell lysate)","Internalization into J774E cells: glucocerebrosidase activity (Units/mg cell lysate), absolute (Units/mg cell lysate)","Internalization into J774E cells: glucocerebrosidase activity (Units/mg cell lysate), background corrected (Units/mg cell lysate)","Uptake into J774E cells, fold over background [fold]",Uptake into J774E cells relative to GA-GCB from swainsonine treated cells [fold],Binder
53,1680,1020,2820,2160,3,–,"Gene-Activated GCB (GA-GCB) from untreated HT-1080 cells (enzyme, N-linked glycans as processed by untreated HT-1080 cells (no mannosidase inhibitor)) ARPCIPKSFGYSSVVCVCNATYCDSFDPPTFPALGTFSRYESTRSGRRMELSMGPIQANHTGTGLLLTLQPEQKFQKVKGFGGAMTDAAALNILALSPPAQNLLLKSYFSEEGIGYNIIRVPMASCDFSIRTYTYADTPDDFQLHNFSLPEEDTKLKIPLIHRALQLAQRPVSLLASPWTSPTWLKTNGAVNGKGSLKGQPGDIYHQTWARYFVKFLDAYAEHKLQFWAVTAENEPSAGLLSGYPFQCLGFTPEHQRDFIARDLGPTLANSTHHNVRLLMLDDQRLLLPHWAKVVLTDPEAAKYVHGIAVHWYLDFLAPAKATLGETHRLFPNTMLFASEACVGSKFWEQSVRLGSWDRGMQYSHSIITNLLYHVVGWTDWNLALNPEGGPNWVRNFVDSPIIVDITKDTFYKQPMFYHLGHFSKFIPEGSQRVGLVASQKNDLDAVALMHPDGSAVVVVLNRSSKDVPLTIKDPAVGFLETISPGYSIHTYLWRRQ"
67,2040,1380,4790,4130,7,–,"Gene-Activated GCB (GA-GCB) from HT-1080 cells treated with swainsonine (1 µg/mL) (enzyme, N-linked glycans not trimmed by Golgi mannosidase II (cells treated with the class 2 mannosidase inhibitor swainsonine, 1 µg/mL)) ARPCIPKSFGYSSVVCVCNATYCDSFDPPTFPALGTFSRYESTRSGRRMELSMGPIQANHTGTGLLLTLQPEQKFQKVKGFGGAMTDAAALNILALSPPAQNLLLKSYFSEEGIGYNIIRVPMASCDFSIRTYTYADTPDDFQLHNFSLPEEDTKLKIPLIHRALQLAQRPVSLLASPWTSPTWLKTNGAVNGKGSLKGQPGDIYHQTWARYFVKFLDAYAEHKLQFWAVTAENEPSAGLLSGYPFQCLGFTPEHQRDFIARDLGPTLANSTHHNVRLLMLDDQRLLLPHWAKVVLTDPEAAKYVHGIAVHWYLDFLAPAKATLGETHRLFPNTMLFASEACVGSKFWEQSVRLGSWDRGMQYSHSIITNLLYHVVGWTDWNLALNPEGGPNWVRNFVDSPIIVDITKDTFYKQPMFYHLGHFSKFIPEGSQRVGLVASQKNDLDAVALMHPDGSAVVVVLNRSSKDVPLTIKDPAVGFLETISPGYSIHTYLWRRQ"
73,2980,2320,9180,8530,14,2,"Gene-Activated GCB (GA-GCB) from HT-1080 cells treated with kifunensine (1 µg/mL) (enzyme, N-linked high mannose glycans (cells treated with the class 1 mannosidase inhibitor kifunensine, 1 µg/mL)) ARPCIPKSFGYSSVVCVCNATYCDSFDPPTFPALGTFSRYESTRSGRRMELSMGPIQANHTGTGLLLTLQPEQKFQKVKGFGGAMTDAAALNILALSPPAQNLLLKSYFSEEGIGYNIIRVPMASCDFSIRTYTYADTPDDFQLHNFSLPEEDTKLKIPLIHRALQLAQRPVSLLASPWTSPTWLKTNGAVNGKGSLKGQPGDIYHQTWARYFVKFLDAYAEHKLQFWAVTAENEPSAGLLSGYPFQCLGFTPEHQRDFIARDLGPTLANSTHHNVRLLMLDDQRLLLPHWAKVVLTDPEAAKYVHGIAVHWYLDFLAPAKATLGETHRLFPNTMLFASEACVGSKFWEQSVRLGSWDRGMQYSHSIITNLLYHVVGWTDWNLALNPEGGPNWVRNFVDSPIIVDITKDTFYKQPMFYHLGHFSKFIPEGSQRVGLVASQKNDLDAVALMHPDGSAVVVVLNRSSKDVPLTIKDPAVGFLETISPGYSIHTYLWRRQ"
